Assay: yeast display, Sf9 membrane polyspecificity reagent, FACS + sequencing; frameworks hold sequencing errors
How it was run: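 After 36–48 hours of galactose induction, yeast (Saccharomyces cerevisiae BJ5465) displaying a synthetic nanobody library were stained at 4 °C for 1 hour with 10% biotinylated, detergent-solubilized Sf9 membrane reagent. Streptavidin microbeads enriched the stained cells before FACS sorting into low and high (top ~1%) gates on anti-HA and streptavidin fluorescence. Each clone's polyreactivity label reflects its gate of origin.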
With “QVQLQESGGGLVQEGGSLRLSCAASGNISPPADMGWYRPAPGKERELVASIGTGGTTNYADSVKGRFTISRDNAKNTVYLQMNSLKPDDTAVYYCAAVRYEYNPYDYWGQGTQVTVSS” the “polyreactivity (PSR sort gate)” value was “low polyreactivity”. For “QVQLQESGGGLVQEGGSLRLSCAASGNISPPADMGWYRQAHGKERELVASIGTGGTTNYADSVKGRFTISRDNAKNSVYLQMNSLKPDDTAVYYCAAVRYEYNPYDYWGQGTQVTVSS”, the “polyreactivity (PSR sort gate)” value was “low polyreactivity”. In the case of “QVQLQESGGGLVQEGGSLRLSCAASGNISPPADMGWYRQAPGKERELVASIGTGGTTNYADSVKGRFTISRDNAKNTVYLQMNSLQPDDTAVYYCAAVRYEYNPYDYWGQGTQVTVSS”, the “polyreactivity (PSR sort gate)” value is reported as “low polyreactivity”. In the case of “QVQLQESGGGLVQEGGSLRLSCAASGTISQEDWMGWYRQAPGKEREFVAAIGLGSNTNYADSLKGRFTISRDNAKNTVYLQMNSLKPEDTAVYYCAVSVWQYSDHVYRGQGTQVTVSS”, the “polyreactivity (PSR sort gate)” value is reported as “low polyreactivity”. In the case of “QVQLQESGGGLVQVGGSQRLSCAASGNIFYNYAMGWYRHAQGKEREFDATINHGTSINYADSVKGRFTISRDNAKNTVYLQMNSLKPEDTAVYYCAADLSWTDNLFYWGQGTQVTVIS”, the “polyreactivity (PSR sort gate)” value is reported as “low polyreactivity”. With “QVQLQESGGGLVQVGGSQRLSCAASGNIFYNYAMGWYRHAQGKEREFDATINHGTSINYADSVKGRFTISRDNAKNTVYLQMNSLKPEDTAVYYCAARVVRYGYKYYYWGQGTQVTLSS” the “polyreactivity (PSR sort gate)” value was “low polyreactivity”. For “QVQLQESGGGMVQAGGSLRLSCAASGSIFADVQMGWYRQAPGKVRELVASINFRGTTTYYADSVKGRFTISRDNAKNTVYLQMSSLKPEDTEVYYCAVGRSEGGDFAYWGQGTHVTVSS”, the “polyreactivity (PSR sort gate)” value was “low polyreactivity”. With “QVQLQESGGGMVQAGGSLRLSCAASGYISWADYKGWYRQAPGKERELVAGIGYGSTTYYADSVKGRFTISRDNAINTAYLQMNSLKPEDTAVYYCAVGWYRDTAYKYWGHGTQVTVSS” the “polyreactivity (PSR sort gate)” value was “low polyreactivity”. With “QVQLQESGGGPVLAGCSLRLSCAASGTIFVRLDMGWYRQAPGKEREFVATIGSGSSTYYADSVKGSFTISRDNVKNTVYLQMNSLKQEDTAVYYCAVSAAEQSRHYYWDQGTQVTVSS” the “polyreactivity (PSR sort gate)” value was “low polyreactivity”. For “QVQLQESGGGPVLAGGRLRLSCAASGTIFVRLDMGWYRQAPGKEREFVATIGSGSSTYYADSVKGSFTISRDNVKNTVFLQMNTLIPEDTAVYYCAVSAAEQSRHYYWDQGTQVTVSS”, the “polyreactivity (PSR sort gate)” value was “low polyreactivity”. With “QVQLQESGGGPVLAGGSLRLSCEASGTIFVRLDMGWYRQAPGKEREFVATIGSGSSTYYADSVKGSFTISRDNVKNTVYLQMNSLKPEETAVYYCAVSAAEQSRHYYWDQGTQVTVSS” the “polyreactivity (PSR sort gate)” value was “low polyreactivity”. In the case of “QVQLQESGGGQVLAGGSLRLSCAASGSISAQAYMGWDRQAPGKEREHVAGINYGDNTNYADSVKGRFTISRDNEHRVSADEQPVSGRYRGVLLRGFLELFYYYIYWGQGTQVNVSS”, the “polyreactivity (PSR sort gate)” value is reported as “high polyreactivity”. For “QVQLQESGGGQVQAGGSLRLSCAASGTIFLYAFKGWYRQAPGKERELVAAIDVGTTTNYADSVKGRFTISRDNAKNTVYLQMNSLKPEDTAVYYCAANLGYLDDLGYWGQGTQVTVSS”, the “polyreactivity (PSR sort gate)” value was “low polyreactivity”. In the case of “QVQLQESGGGQVQAGGSLRLSCAASGTIFLYAFMGWYRQAPGKERELVAAIDVGTTTNYADSVKGRFTISRDNAKNTGYLQMNSLKPEDTAVYYCAANLGYLEDLGYWGQGTQVTVSS”, the “polyreactivity (PSR sort gate)” value is reported as “low polyreactivity”. In the case of “QVQLQESGGGQVQAGGSLRLSCAASGYISTHYFMGWYRQAPGKDREFVAGISNGSITNYADSVKGRFTISRDNARNTVYLQMNSLKPEDTAVYYGAAYEWTYVRFGYWGQGTQVTVSG”, the “polyreactivity (PSR sort gate)” value is reported as “high polyreactivity”. In the case of “QVQLQESGGGQVQAGGTITLGYDMGWYRQAPGKEREFVAGIDTGAITYYADSVKGRFTNSRDNAKNTVYLQMNSLKPEDTAVYYCAAIQTHTYAHSYWGQGTQVTVSS”, the “polyreactivity (PSR sort gate)” value is reported as “high polyreactivity”. In the case of “QVQLQESGGGVQAGGSLRLSCAASGSISAPILMGWYRQAPGKERELVAGIGGGANSYYADSVKGRFTVSRDNAKYTVYLQMNSLKPEATAVYYCAAGDYYWTNFGYWGQGTQVTASS”, the “polyreactivity (PSR sort gate)” value is reported as “high polyreactivity”. For “QVQLQESGGRLVQAGGSLRMSCAASGTIFSEANMGWYRQAPGKERELVATIGQGSTTNYADSVKGLFTISRDNAKNTVYLQMNSLKPEETAVYYCAVVTVDPVGFVYWGQGTQVTVSS”, the “polyreactivity (PSR sort gate)” value was “low polyreactivity”.
